Test results published in patent US20170290925A1, “Conjugates And Conjugating Reagents” (priority 2014, published 2017).
Where a SMILES comes first, the peptide text is derived from it. [ ]: non-standard residue; d: D form. The star is where a group is joined. Dolaproine = CO[C@@H]([C@@H]1CCCN1)[C@@H](C)C(=O)O; Dil = CC[C@H](C)[C@H](NC)[C@@H](CC(=O)O)OC; X1 = C[C@@H](N*)[C@@H](O)c1ccccc1; NMeV = CN[C@H](C(=O)O)C(C)C

How the values were obtained:
[1] = system: CD30-positive Karpas 299 cell line; experiment: In vitro cell viability assay (CellTiter Glo) in Karpas 299; assay type: cell-based, human; conditions: Karpas 299 cells, 72 h incubation, conjugates DAR 4
Protocol: Purified brentuximab drug conjugates 10 and 11 with a drug to antibody ratio (DAR) of four as described in Example 6, were evaluated in vitro by measuring the inhibitory effect on cell growth of (CD30)-positive cell line Karpas 299 using the method described below.
Loss of tumour cell viability following treatment with cytotoxic drugs or ADCs in vitro can be measured by growing cell lines in the presence of increasing concentrations of drugs or ADCs and quantifying the loss of proliferation or metabolic activity using CellTiter Glo® Luminescence reagent (Promega Corp. Technical Bulletin TB288; Lewis Phillips G. D, Cancer Res 2008; 68:9280-9290). […]
The human T cell lymphoma cell line Karpas 299 was obtained from Dr Abraham Karpas at the University of Cambridge. […] CD30-positive Karpas 299 were counted using a Neubauer haemocytometer and adjusted to a cell density of 5×10^4/mL. […]
The cell viability assay was carried out using the Cell-Titer Glo® Luminescence reagent, as described by the manufacturer's instructions, (Promega Corp. Technical Bulletin TB288; Lewis Phillips G. D, Cancer Res 2008; 68:9280-9290). […] Luminescence was recorded using a plate reader (e.g. MD Spectramax M3 plate reader), and data subsequently analysed using a four parameter non-linear regression model. […]

[2] = In vivo pharmacokinetics in rats, total (anti-CD30 antibody) ELISA; design: species or system Sprague-Dawley rats; conditions: single dose 7 mg/kg IV, period of 850 h
Protocol: (§1) Brentuximab conjugate 10 was used in this study as the ADC with a pendant PEG group. Brentuximab conjugate 11 was used as a comparator with a non-pendant PEG group.
(§2) In vivo pharmacokinetics in rats. Sprague-Dawley rats (3 rats per group) with an average weight of 200 g were treated with either 10, 11 or Adcetris®, via the tail vein (IV, bolus) at a single dose of 7 mg/kg. Serial sampling of 100 μL blood was performed before dosing and subsequently at 30 min, 24 h, 48 h, 7 d, 14 d and 35 d post-dosing respectively. Plasma was prepared from fresh blood samples and frozen at −80° C. until analysis.
Total (anti-CD30 antibody) ELISA. Total brentuximab antibody content from plasma samples was quantified using ELISA technology. Briefly, Maxisorp™ 96 well plates (Nunc/Fisher) were coated with recombinant human CD30, (Sino Biological Inc, 2.5 μg/mL in diluent) and incubated at 4° C. overnight. Plasma samples were diluted to ensure that the unknown ADCs fell within the linear range of the sigmoidal standard calibration curve. […]
IgG, (Promega) was added to the plate and the samples were incubated for 1 hour at room temperature on a shaker at 350 rpm. […] The assay was stopped with 100 μL of 0.5 M H2SO4 and read at UV λ=[…] using the plate reader. Data were plotted and evaluated in GraphPad Prism 5 and Microsoft Excel.

[3] = In vivo pharmacokinetics in rats, average DAR by CD30 affinity capture and HIC; design: species or system Sprague-Dawley rats; conditions: single dose 7 mg/kg IV, period of 850 h
Protocol: as §1, §2
CD30 affinity capture for average DAR determination Affinity capture was performed using streptavidin coated magnetic beads (Dynabeads-Streptavidin T1, Life Technologies). […] 500 1AL of the plasma sample in PBS was added to the CD30-coated beads and incubated overnight at 4° C. and finally washed using PBS. Captured antibodies were eluted using acidic elution buffer for 5 minutes at 4° C. […] Eluted samples were further mixed with HIC loading buffer and analysed using hydrophobic interaction chromatography with UV detection (HIC-UV).
Hydrophobic interaction chromatography for average DAR determination. Affinity captured ADCs were analysed using hydrophobic interaction chromatography in order to determine the average drug to antibody ratio (DAR). […]

Row | Compound | IC50 [1] [nM] | Rate of clearance from the circulation (total antibody) [2] | Rate of drug loss from the conjugate (average DAR) [3]
1 | CC[C@H](C)[C@@H]([C@@H](CC(=O)N1CCC[C@H]1[C@H](OC)[C@@H](C)C(=O)N[C@H](C)[C@@H](O)c1ccccc1)OC)N(C)C(=O)[C@@H](NC(=O)[C@@H](NC)C(C)C)C(C)C [MMAE] (H-[NMeV]V[Dil][Dolaproine]-X1) | 0.105 |  | 
2 | Adcetris® |  | cleared more quickly | much faster rate of drug dissociation
